Results reported in IntAct's records for PubMed 26886794.

Tests used:
[1] = target: ASH2L, Q9UBL3-3
[2] = target: ASH2L, Q9UBL3-3; remark: listed apart in the source

Sequence of ASH2L, Q9UBL3-3 (Q9UBL3 95-628): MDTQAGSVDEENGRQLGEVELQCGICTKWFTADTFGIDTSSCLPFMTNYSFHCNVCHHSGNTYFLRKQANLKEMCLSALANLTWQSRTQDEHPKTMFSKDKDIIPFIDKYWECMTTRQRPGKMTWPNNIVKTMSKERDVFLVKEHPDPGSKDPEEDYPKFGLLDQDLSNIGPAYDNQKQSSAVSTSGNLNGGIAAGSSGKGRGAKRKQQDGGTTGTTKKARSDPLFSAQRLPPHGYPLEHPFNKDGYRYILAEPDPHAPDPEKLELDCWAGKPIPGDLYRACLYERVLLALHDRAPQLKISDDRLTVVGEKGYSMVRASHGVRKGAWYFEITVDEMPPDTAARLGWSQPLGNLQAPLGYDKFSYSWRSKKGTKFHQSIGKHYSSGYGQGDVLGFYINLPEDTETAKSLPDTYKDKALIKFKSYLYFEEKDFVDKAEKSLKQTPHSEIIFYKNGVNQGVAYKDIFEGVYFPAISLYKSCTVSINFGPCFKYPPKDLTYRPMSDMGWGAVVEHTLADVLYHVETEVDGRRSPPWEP

| effect of a mutation on the interaction [1] | effect of a mutation on the interaction [2] | Substance |
| --- | --- | --- |
| disrupting interaction strength |  | Histone-lysine N-methyltransferase 2B (Homo sapiens), Q9UMN6 R2610A |
|  | disrupting interaction strength | Histone-lysine N-methyltransferase 2C (Homo sapiens), Q8NEZ4 R4806A |
